In PMC11992174:

Biological target: MtbClpC1^F444S-E288A-E626A (Mycobacterium tuberculosis) (UniProt P9WPC9)
Assay: cryo-EM structure

MtbClpC1^F444S-E288A-E626A (from UniProt P9WPC9 1-848) (enzyme)
stoichiometry N: 6
